Measurements reported in the supplement of paper PMC9112550, “Optimization of the antimicrobial peptide Bac7 by deep mutational scanning” (BMC Biology, 2022).

The sequences below were run on Escherichia coli TOP10 (assay: shrunken log2 fold change of peptide-encoding DNA abundance (4.5 h post-induction vs induction); higher = less antimicrobial activity (less host growth inhibition)). Conditions: time post-induction: 4.5 h; library: site-saturation at positions 5, 18, 19, 20.
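Also: peptides expressed intracellularly from a pBAD plasmid library in pooled LB shake-flask culture, induced with 0.3% L-arabinose, DNA abundance read by NGS, three biological replicates, DESeq2 with apeglm shrinkage.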

Sequence | shrunken log2 fold change
RRIRIRPPRLPRPRPRPSLYPRP | -0.535
RRIRVRPPRLPRPRPRPYLAPRP | -0.413
RRIRQRPPRLPRPRPRPEIYPRP | -0.145
RRIRHRPPRLPRPRPRPIRWPRP | 0.171
RRIRKRPPRLPRPRPRPFLVPRP | 0.00497
RRIRNRPPRLPRPRPRPQFEPRP | -0.013
RRIRDRPPRLPRPRPRPVVMPRP | 0.194
RRIRCRPPRLPRPRPRPNIWPRP | -0.178
RRIRGRPPRLPRPRPRPMSCPRP | 0.364
RRIRMRPPRLPRPRPRPYVMPRP | -0.0161
RRIRSRPPRLPRPRPRPMEIPRP | 0.014
RRIRCRPPRLPRPRPRPTPSPRP | 0.736
RRIRNRPPRLPRPRPRPYHVPRP | -0.116
RRIRFRPPRLPRPRPRPNECPRP | -0.00063
RRIRSRPPRLPRPRPRPYDKPRP | 0.0507
RRIRKRPPRLPRPRPRPYLHPRP | -0.31
RRIRKRPPRLPRPRPRPWLWPRP | 0.00796
RRIRTRPPRLPRPRPRPLFHPRP | -0.193
RRIRYRPPRLPRPRPRPVCMPRP | -0.314
RRIRKRPPRLPRPRPRPDGSPRP | 0.132
RRIRHRPPRLPRPRPRPHPSPRP | 0.0305
RRIRDRPPRLPRPRPRPKCGPRP | 0.00846
RRIRWRPPRLPRPRPRPNRKPRP | -0.239

Sequence | shrunken log2 fold change
RRIRYRPPRLPRPRPRPHRHPRP | -0.615
RRIRVRPPRLPRPRPRPDIWPRP | 0.0543
RRIRSRPPRLPRPRPRPHQNPRP | -0.0421
RRIRFRPPRLPRPRPRPSTQPRP | -0.503
RRIRTRPPRLPRPRPRPQTLPRP | -0.278
RRIRIRPPRLPRPRPRPQEIPRP | -0.581
RRIRARPPRLPRPRPRPHFLPRP | -0.127
RRIRLRPPRLPRPRPRPRQVPRP | -0.0496
RRIRHRPPRLPRPRPRPISAPRP | -0.0622
RRIRYRPPRLPRPRPRPAYHPRP | -0.321
RRIRKRPPRLPRPRPRPTFDPRP | 0.227
RRIRMRPPRLPRPRPRPDPAPRP | 1.13
RRIRGRPPRLPRPRPRPFEQPRP | 0.618
RRIRPRPPRLPRPRPRPAFLPRP | -0.0283
RRIRARPPRLPRPRPRPLAAPRP | 0.942
RRIRIRPPRLPRPRPRPIINPRP | -1.15
RRIRTRPPRLPRPRPRPFATPRP | 0.101
RRIRHRPPRLPRPRPRPERWPRP | 0.357
RRIRVRPPRLPRPRPRPVLLPRP | -0.35
RRIRHRPPRLPRPRPRPYLVPRP | -0.162
RRIRMRPPRLPRPRPRPSHLPRP | -0.123
RRIRHRPPRLPRPRPRPQLDPRP | 0.153
RRIRARPPRLPRPRPRPNHTPRP | -0.605

Sequence | shrunken log2 fold change
RRIRKRPPRLPRPRPRPSQFPRP | 0.164
RRIRLRPPRLPRPRPRPDSAPRP | 0.0605
RRIRVRPPRLPRPRPRPACMPRP | -0.0781
RRIRGRPPRLPRPRPRPKNTPRP | 0.232
RRIRQRPPRLPRPRPRPIFHPRP | -0.176
RRIRTRPPRLPRPRPRPIDCPRP | 0.0429
RRIRKRPPRLPRPRPRPWEAPRP | 0.0326
RRIRWRPPRLPRPRPRPSHGPRP | -0.583
RRIRCRPPRLPRPRPRPESYPRP | -0.336
RRIRGRPPRLPRPRPRPKPRPRP | 1.16
RRIRCRPPRLPRPRPRPDPFPRP | -0.187
RRIRVRPPRLPRPRPRPHLHPRP | -0.279
RRIRDRPPRLPRPRPRPIAVPRP | -0.00168
RRIRFRPPRLPRPRPRPMTWPRP | 0.478
RRIRFRPPRLPRPRPRPVEKPRP | 0.149
RRIRIRPPRLPRPRPRPWVRPRP | 0.0146
RRIRCRPPRLPRPRPRPFSVPRP | -0.236
RRIRVRPPRLPRPRPRPGGPPRP | 0.0704
RRIRWRPPRLPRPRPRPSQLPRP | -0.375
RRIRVRPPRLPRPRPRPHIQPRP | -0.528
RRIRLRPPRLPRPRPRPVCPPRP | 0.149
RRIRNRPPRLPRPRPRPIFAPRP | 0.111
RRIRCRPPRLPRPRPRPPCWPRP | 0.264

Sequence | shrunken log2 fold change
RRIRDRPPRLPRPRPRPPHAPRP | 0.631
RRIRGRPPRLPRPRPRPKQIPRP | 0.335
RRIRARPPRLPRPRPRPKDSPRP | 0.181
RRIRYRPPRLPRPRPRPWTNPRP | -0.00804
RRIRSRPPRLPRPRPRPDCRPRP | 0.0345
RRIRERPPRLPRPRPRPRSFPRP | -0.331
RRIRWRPPRLPRPRPRPEGIPRP | -0.00186
RRIRERPPRLPRPRPRPNDSPRP | -0.0224
RRIRHRPPRLPRPRPRPQVNPRP | -0.273
RRIRKRPPRLPRPRPRPRRMPRP | 0.488
RRIRQRPPRLPRPRPRPNLGPRP | 0.0673
RRIRNRPPRLPRPRPRPKEMPRP | -0.0529
RRIRKRPPRLPRPRPRPYNPPRP | -1.13
RRIRRRPPRLPRPRPRPCGVPRP | 0.0719
RRIRYRPPRLPRPRPRPNASPRP | -0.088
RRIRTRPPRLPRPRPRPLENPRP | 0.0394
RRIRSRPPRLPRPRPRPWRIPRP | -0.0443
RRIRQRPPRLPRPRPRPPCTPRP | -0.0301
RRIRKRPPRLPRPRPRPQYTPRP | -0.156
RRIRCRPPRLPRPRPRPGGKPRP | -0.0361
RRIRKRPPRLPRPRPRPNRDPRP | 0.169
RRIRDRPPRLPRPRPRPISMPRP | 0.0543
